# From the supplement of paper PMC11246515
# ± gives the standard deviation of the averaged measurements.
# Experiment: total protein half-life in vivo (active degradation + dilution); higher = more stable protein
# [1] = E. coli NCM3722 delta-clpP delta-lon delta-hslV, growth: N-lim chemostat, doubling time 6 h
# [2] = E. coli NCM3722 delta-clpP, growth: N-lim chemostat, doubling time 6 h
# [3] = E. coli NCM3722 delta-hslV, growth: N-lim chemostat, doubling time 6 h
# [4] = E. coli NCM3722 delta-lon, growth: N-lim chemostat, doubling time 6 h
# [5] = E. coli NCM3722 delta-smpB, growth: N-lim chemostat, doubling time 6 h
# [6] = wild type E. coli NCM3722, growth: C-lim chemostat, doubling time 3 h
# [7] = wild type E. coli NCM3722, growth: C-lim chemostat, doubling time 6 h
# [8] = wild type E. coli NCM3722, growth: C-lim chemostat, doubling time 12 h
# [9] = wild type E. coli NCM3722, growth: N-lim chemostat, doubling time 6 h
# [10] = wild type E. coli NCM3722, growth: N-lim chemostat, doubling time 12 h
# [11] = wild type E. coli NCM3722, growth: P-lim chemostat, doubling time 6 h
# [12] = wild type E. coli NCM3722, growth: P-lim chemostat, doubling time 12 h
Sequence,total protein half-life in vivo [1],total protein half-life in vivo [2],total protein half-life in vivo [3],total protein half-life in vivo [4],total protein half-life in vivo [5],total protein half-life in vivo [6],total protein half-life in vivo [7],total protein half-life in vivo [8],total protein half-life in vivo [9],total protein half-life in vivo [10],total protein half-life in vivo [11],total protein half-life in vivo [12]
MAQHTVYFPDAFLTQMREAMPSTLSFDDFLAACQRPLRRSIRVNTLKISVADFLQLTAPYGWTLTPIPWCEEGFWIERDNEDALPLGSTAEHLSGLFYIQEASSMLPVAALFADGNAPQRVMDVAAAPGSKTTQISARMNNEGAILANEFSASRVKVLHANISRCGISNVALTHFDGRVFGAAVPEMFDAILLDAPCSGEGVVRKDPDALKNWSPESNQEIAATQRELIDSAFHALRPGGTLVYSTCTLNQEENEAVCLWLKETYPDAVEFLPLGDLFPGANKALTEEGFLHVFPQIYDCEGFFVARLRKTQAIPALPAPKYKVGNFPFSPVKDREAGQIRQAATGVGLNWDENLRLWQRDKELWLFPVGIEALIGKVRFSRLGIKLAETHNKGYRWQHEAVIALASPDNMNAFELTPQEAEEWYRGRDVYPQAAPVADDVLVTFQHQPIGLAKRIGSRLKNSYPRELVRDGKLFTGNA,4.91 ± 0.059 h,4.53 ± 0.36 h,4.4 ± 0.12 h,5.21 ± 0.62 h,4.38 ± 0.21 h,2.99 ± 0.3 h,5.79 ± 1.4 h,9.34 ± 2.6 h,4.63 ± 0.14 h,8.3 ± 0.63 h,4.78 ± 1.1 h,9.91 ± 0.92 h
MKISPSLMCMDLLKFKEQIEFIDSHADYFHIDIMDGHFVPNLTLSPFFVSQVKKLATKPLDCHLMVTRPQDYIAQLARAGADFITLHPETINGQAFRLIDEIRRHDMKVGLILNPETPVEAMKYYIHKADKITVMTVDPGFAGQPFIPEMLDKLAELKAWREREGLEYEIEVDGSCNQATYEKLMAAGADVFIVGTSGLFNHAENIDEAWRIMTAQILAAKSEVQPHAKTA,–,–,–,–,–,0.597 h,–,–,–,–,–,–
MRNHQLGIYEKALAKDLSWPERLVLAKSCGFDFVEMSVDETDERLSRLDWSAAQRTSLVAAMIETGVGIPSMCLSAHRRFPFGSRDEAVRERAREIMSKAIRLARDLGIRTIQLAGYDVYYEDHDEGTRQRFAEGLAWAVEQAAASQVMLAVEIMDTAFMNSISKWKKWDEMLASPWFTVYPDVGNLSAWGNDVPAELKLGIDRIAAIHLKDTQPVTGQSPGQFRDVPFGEGCVDFVGIFKTLHKLNYRGSFLIEMWTEKAKEPVLEIIQARRWIEARMQEAGFIC,–,–,–,–,–,1.06 h,1.6 ± 0.19 h,2.24 h,–,–,–,–
MNLLTVSTDLISIFLFTTLFLFFARKVAKKVGLVDKPNFRKRHQGLIPLVGGISVYAGICFTFGIVDYYIPHASLYLACAGVLVFIGALDDRFDISVKIRATIQAAVGIVMMVFGKLYLSSLGYIFGSWEMVLGPFGYFLTLFAVWAAINAFNMVDGIDGLLGGLSCVSFAAIGMILWFDGQTSLAIWCFAMIAAILPYIMLNLGILGRRYKVFMGDAGSTLIGFTVIWILLETTQGKTHPISPVTALWIIAIPLMDMVAIMYRRLRKGMSPFSPDRQHIHHLIMRAGFTSRQAFVLITLAAALLASIGVLAEYSHFVPEWVMLVLFLLAFFLYGYCIKRAWKVARFIKRVKRRLRRNRGGSPNLTK [P0AC78],–,6.35 h,5.89 ± 0.39 h,5.27 ± 0.83 h,5.8 ± 0.18 h,3.68 ± 0.28 h,5.75 h,11.8 ± 2.3 h,6.03 h,10.4 h,6.33 ± 0.36 h,–
MSQPITRENFDEWMIPVYAPAPFIPVRGEGSRLWDQQGKEYIDFAGGIAVNALGHAHPELREALNEQASKFWHTGNGYTNEPVLRLAKKLIDATFADRVFFCNSGAEANEAALKLARKFAHDRYGSHKSGIVAFKNAFHGRTLFTVSAGGQPAYSQDFAPLPADIRHAAYNDINSASALIDDSTCAVIVEPIQGEGGVVPASNAFLQGLRELCNRHNALLIFDEVQTGVGRTGELYAYMHYGVTPDLLTTAKALGGGFPVGALLATEECARVMTVGTHGTTYGGNPLASAVAGKVLELINTPEMLNGVKQRHDWFVERLNTINHRYGLFSEVRGLGLLIGCVLNADYAGQAKQISQEAAKAGVMVLIAGGNVVRFAPALNVSEEEVTTGLDRFAAACEHFVSRGSS,3.59 ± 0.43 h,3.17 ± 0.87 h,2.47 ± 0.25 h,2.97 ± 0.5 h,2.79 ± 0.15 h,3.106 ± 0.012 h,4.44 ± 0.17 h,7.4513 ± 0.0042 h,2.67 ± 0.12 h,3.532 ± 0.018 h,5.09 ± 0.52 h,9.766 ± 0.073 h
MHQVVCATTNPAKIQAILQAFHEIFGEGSCHIASVAVESGVPEQPFGSEETRAGARNRVANARRLLPEADFWVAIEAGIDGDSTFSWVVIENASQRGEARSATLPLPAVILEKVREGEALGPVMSRYTGIDEIGRKEGAIGVFTAGKLTRASVYHQAVILALSPFHNAVY,4.71 ± 0.46 h,3.828 ± 0.038 h,3.608 ± 0.012 h,4.01 ± 0.27 h,3.57 ± 0.16 h,2.81 ± 0.067 h,5.02 ± 0.2 h,8.17 ± 0.45 h,3.92 h,5.34 ± 0.057 h,5.38 ± 0.72 h,10.9 ± 2 h
MNYSHDNWSAILAHIGKPEELDTSARNAGALTRRREIRDAATLLRLGLAYGPGGMSLREVTAWAQLHDVATLSDVALLKRLRNAADWFGILAAQTLAVRAAVTGCTSGKRLRLVDGTAISAPGGGSAEWRLHMGYDPHTCQFTDFELTDSRDAERLDRFAQTADEIRIADRGFGSRPECIRSLAFGEADYIVRVHWRGLRWLTAEGMRFDMMGFLRGLDCGKNGETTVMIGNSGNKKAGAPFPARLIAVSLPPEKALISKTRLLSENRRKGRVVQAETLEAAGHVLLLTSLPEDEYSAEQVADCYRLRWQIELAFKRLKSLLHLDALRAKEPELAKAWIFANLLAAFLIDDIIQPSLDFPPRSAGSEKKN [P0CF93],5.49 ± 0.06 h,0.94 h,1.34 ± 0.12 h,1.85 ± 0.024 h,0.81 h,0.861 ± 0.23 h,1.69 ± 0.64 h,2.64 ± 0.44 h,1.62 ± 0.41 h,2.3 ± 0.26 h,0.485 h,11.9 h
MSAVLTAEQALKLVGEMFVYHMPFNRALGMELERYEKEFAQLAFKNQPMMVGNWAQSILHGGVIASALDVAAGLVCVGSTLTRHETISEDELRQRLSRMGTIDLRVDYLRPGRGERFTATSSLLRAGNKVAVARVELHNEEQLYIASATATYMVG [P0ADP2],5.02 ± 0.33 h,2.3 ± 0.16 h,2.36 ± 0.08 h,3.45 ± 0.78 h,2.22 ± 0.052 h,2.82 ± 0.14 h,5.73 ± 0.62 h,7.1 ± 2.8 h,2.54 ± 0.22 h,4.13 ± 0.42 h,5 ± 0.1 h,12.5 ± 1 h
MKKPLRQQNRQIISYVPRTEPAPPEHAIKMDSFRDVWMLRGKYVAFVLMGESFLRSPAFTVPESAQRWANQIRQEGEVTE [P0AE60],–,5.19 h,3.87 h,–,–,–,–,–,3.66 h,6.6 h,4.26 ± 1.1 h,9.35 h
MKATSEELAIFVSVVESGSFSRAAEQLGQANSAVSRAVKKLEMKLGVSLLNRTTRQLSLTEEGERYFRRVQSILQEMAAAESEIMETRNTPRGLLRIDAATPVVLHFLMPLIKPFRERYPEVTLSLVSSETIINLIERKVDVAIRAGTLTDSSLRARPLFNSYRKIIASPDYISRYGKPETIDDLKQHICLGFTEPASLNTWPIARSDGQLHEVKYGLSSNSGETLKQLCLSGNGIACLSDYMIDKEIARGELVELMADKVLPVEMPFSAVYYSDRAVSTRIRAFIDFLSEHVKTAPGGAVREA,6.4 ± 0.2 h,–,5.5 ± 1.2 h,5.97 ± 0.94 h,5.67 ± 0.07 h,3.33 ± 0.26 h,5.1 ± 0.3 h,12.7 ± 0.46 h,6.02 ± 0.12 h,11.3 ± 0.32 h,5.75 ± 0.71 h,12 ± 1.9 h
MYTRNLLWLVSLVSAAPLYAADVPANTPLAPQQVFRYNNHSDPGTLDPQKVEENTAAQIVLDLFEGLVWMDGEGQVQPAQAERWEILDGGKRYIFHLRSGLQWSDGQPLTAEDFVLGWQRAVDPKTASPFAGYLAQAHINNAAAIVAGKADVTSLGVKATDDRTLEVTLEQPVPWFTTMLAWPTLFPVPHHVIAKHGDSWSKPENMVYNGAFVLDQWVVNEKITARKNPKYRDAQHTVLQQVEYLALDNSVTGYNRYRAGEVDLTWVPAQQIPAIEKSLPGELRIIPRLNSEYYNFNLEKPPFNDVRVRRALYLTVDRQLIAQKVLGLRTPATTLTPPEVKGFSATTFDELQKPMSERVAMAKALLKQAGYDASHPLRFELFYNKYDLHEKTAIALSSEWKKWLGAQVTLRTMEWKTYLDARRAGDFMLSRQSWDATYNDASSFLNTLKSDSEENVGHWKNAQYDALLNQATQITDATKRNALYQQAEVIINQQAPLIPIYYQPLIKLLKPYVGGFPLHNPQDYVYSKELYIKAH,–,5.575 ± 0.035 h,6.61 ± 1.4 h,6.72 ± 0.075 h,5.64 ± 0.24 h,2.9 ± 0.11 h,5.96 ± 0.64 h,11 ± 0.65 h,5.531 ± 0.0077 h,–,5.83 ± 0.61 h,11.7 ± 0.71 h
